Experimental data reported in US20140369978A1.

Key:
[1] = target: Fc-fusion protein receptor ectodomain of BMPR-IB; test: ratio KD(IA):KD(IB) from Biacore, relative to wild type
[2] = target: Fc-fusion protein receptor ectodomain of BMPR-IB; test: ratio of Biacore KDs, BMPR-IA as reference; measurement 1
[3] = target: Fc-fusion protein receptor ectodomain of BMPR-IB; test: ratio of Biacore KDs, BMPR-IA as reference; measurement 2
[4] = target: Fc-fusion protein receptor ectodomain of BMPR-II; test: SPR (Biacore T100), receptor ectodomain-Fc on protein G chip, equilibrium binding (KD eq)
[5] = target: Fc-fusion protein receptor ectodomain of BMPR-IA; test: SPR (Biacore T100), receptor ectodomain-Fc on protein G chip, kinetic 1:1 fit; measurement 1
[6] = target: Fc-fusion protein receptor ectodomain of BMPR-IB; test: as above
[7] = target: Fc-fusion protein receptor ectodomain of BMPR-IA; test: SPR (Biacore T100), receptor ectodomain-Fc on protein G chip, kinetic 1:1 fit; measurement 2
[8] = target: Fc-fusion protein receptor ectodomain of BMPR-IB; test: as above

| Binder | fold higher IB affinity over IA compared to WT [1] | fold higher IB affinity over IA, KD(IA): KD(IB) [2] | fold higher IB affinity over IA, KD(IA): KD(IB) [3] | Kd [4] | Kd [5] | Kd [6] | Kd [7] | Kd [8] |
| --- | --- | --- | --- | --- | --- | --- | --- | --- |
| recombinant human GDF-5 wild type (ligand) APLATRQGKRPSKNLKARCSRKALHVNFKDMGWDDWIIAPLEYEAFHCEGLCEFPLRSHLEPTNHAVIQTLMNSMDPESTPPTACVPTRLSPISILFIDSANNVVYKQYEDMVVESCGCR | 1 fold | 122 fold | 40 fold | 32 nM | 1 nM | 0.008 nM | 1.1 nM | 0.027 nM |
| recombinant human GDF-5 mutant R399M (ligand) APLATRQGKRPSKNLKAMCSRKALHVNFKDMGWDDWIIAPLEYEAFHCEGLCEFPLRSHLEPTNHAVIQTLMNSMDPESTPPTCCVPTRLSPISILFIDSANNVVYKQYEDMVVESCGCR | 1.8 fold | 216 fold | – | 32 nM | 0.54 nM | 0.0025 nM | – | – |
| recombinant human GDF-5 mutant R399E (ligand) APLATRQGKRPSKNLKAECSRKALHVNFKDMGWDDWIIAPLEYEAFHCEGLCEFPLRSHLEPTNHAVIQTLMNSMDPESTPPTCCVPTRLSPISILFIDSANNVVYKQYEDMVVESCGCR | 1.1 fold | 130 fold | – | 32 nM | 22.5 nM | 0.172 nM | – | – |
| human GDF-5 mutant M412V (ligand) APLATRQGKRPSKNLKARCSRKALHVNFKDVGWDDWIIAPLEYEAFHCEGLCEFPLRSHLEPTNHAVIQTLMNSMDPESTPPTCCVPTRLSPISILFIDSANNVVYKQYEDMVVESCGCR | 8.3 fold | – | 333 fold | – | – | – | 13 nM | 0.039 nM |
| recombinant human GDF-5 mutant W414R (ligand) APLATRQGKRPSKNLKARCSRKALHVNFKDMGRDDWIIAPLEYEAFHCEGLCEFPLRSHLEPTNHAVIQTLMNSMDPESTPPTCCVPTRLSPISILFIDSANNVVYKQYEDMVVESCGCR | 5.5 fold | 668 fold | – | – | 20.3 nM | 0.03 nM | – | – |
| human GDF-5 mutant W417F (ligand) APLATRQGKRPSKNLKARCSRKALHVNFKDMGWDDFIIAPLEYEAFHCEGLCEFPLRSHLEPTNHAVIQTLMNSMDPESTPPTCCVPTRLSPISILFIDSANNVVYKQYEDMVVESCGCR | 14.7 fold | – | 587 fold | – | – | – | 27 nM | 0.046 nM |
| human GDF-5 mutant W417R (ligand) APLATRQGKRPSKNLKARCSRKALHVNFKDMGWDDRIIAPLEYEAFHCEGLCEFPLRSHLEPTNHAVIQTLMNSMDPESTPPTCCVPTRLSPISILFIDSANNVVYKQYEDMVVESCGCR | 56.2 fold | – | 2650 fold | – | – | – | 98 nM | 0.037 nM |
| human GDF-5 mutant R438K (ligand) APLATRQGKRPSKNLKARCSRKALHVNFKDMGWDDWIIAPLEYEAFHCEGLCEFPLKSHLEPTNHAVIQTLMNSMDPESTPPTCCVPTRLSPISILFIDSANNVVYKQYEDMVVESCGCR | 5.9 fold | 717 fold | – | 32 nM | 32.5 nM | 0.045 nM | – | – |
| human GDF-5 mutant S439K (ligand) APLATRQGKRPSKNLKARCSRKALHVNFKDMGWDDWIIAPLEYEAFHCEGLCEFPLRKHLEPTNHAVIQTLMNSMDPESTPPTCCVPTRLSPISILFIDSANNVVYKQYEDMVVESCGCR | 19.7 fold | 2400 fold | – | 10 nM | 43.4 nM | 0.01 nM | – | – |
| recombinant human GDF-5 mutant S439E (ligand) APLATRQGKRPSKNLKARCSRKALHVNFKDMGWDDWIIAPLEYEAFHCEGLCEFPLREHLEPTNHAVIQTLMNSMDPESTPPTCCVPTRLSPISILFIDSANNVVYKQYEDMVVESCGCR | 14.5 fold | – | 581 fold | – | – | – | 25 nM | 0.043 nM |
| recombinant human GDF-5 mutant I449V (ligand) APLATRQGKRPSKNLKARCSRKALHVNFKDMGWDDWIIAPLEYEAFHCEGLCEFPLRSHLEPTNHAVVQTLMNSMDPESTPPTCCVPTRLSPISILFIDSANNVVYKQYEDMVVESCGCR | 5.5 fold | – | 219 fold | – | – | – | 5.7 nM | 0.026 nM |
